Substrate: O=C(O)C[C@H](O)C(=O)O
Assay: purified protein
Format: biochemical, Methanocaldococcus jannaschii
Settings: pH 7.2, 50 mM Tris-HCl, 70 °C

B1: MjFH (MjFHαβ), holo, Fe-S reconstituted (Methanocaldococcus jannaschii DSM 2661) (protein)
chain 1: MKISDVVVELFREAAIYLPEDVKNALEEAYKKESSEISKNTLKAIIENNKIAEETQVPLCQDTGVPIVFLKIGKNINSSEIMKIIEEIKEGVKKATEEVPLRPNVVHPLTRENFKTNVGLNSPFINIEFDESLDREIEIIAFPKGAGSENMSALKMLKPSDGIEGIKNFVLETIANAGGKPCPPIVVGIGIGGTADVALKLAKKALLRKIGERHRDKEIANLEKELLEKINSLGIGAMGLGGDITALDVFIEIAGCHTASLPVGICIQCWADRRAIKRIKLDAKL
chain 2: MEYTFNKLTKKDVKKLKVGDIVYLNGKIYTARDEAHLKIIEMLKSNEKLPFDLNESIIYHAGPIMKKVNDSWVCVSIGPTTSARMNDVEEEFIKLTNISAIVGKGGMKKELLKTFEDYGVVYLAAPGGCAALLANSVKRVDNVYFLDELGMPEAVWELEVNNFGPLIVAMDSHGNSIYEEVNKKVYEKLNELIGL
Km: 1554 ± 169 µM

Reference: publication doi:10.1101/2022.09.03.506457v1
